Assay: soluble on expression in E. coli; label from the status in PepcDB or PDB records

Sequence	soluble on expression in E. coli
MAHHHHHHMCPYEERQELRISMGFAGRRPNLTFTSDTMDAHAYLVRHWALNAIAESAGKGMSVQRDSIPFLARSQHSIVNENKMTFLRPDGKIKYNIPKHWLLESDSSVNFLNASPGPVLPSEADNLLVCCTIYEERPEKCMRVYRVRTREDYIAVNQEILAAKCQLLEMNEVNGRNSMRISSRSTRASQQKERLGQTQRVLRTSMERKSINTAADSAGLPFSAFALSGLVSNAAFTIHKTDTSRQINIIHSFLRTEPTCKATIARSIVGNNVTLGPDVRITNSIILDNAEIGAGAIISNSVIGSSAMVNSGVRVVSCTVGPQCLVESNETDRVIRA	not soluble
MAHHHHHHMDCNTGMQLGQQFSKDVTMMHGGVPMSGAMSEQDALMVSAQVGGASPMMAAQWAQNFQQQQAMQAMRQQHEMEQAFQNSQQQQHAAVAQSGQMLGMAGPQQQQFMVQQQQQASMMNAAMMSQGMMTANMGFGMMMPRTQYQPLPNLSVLQPNQQQQQQQQLVNLAPAVQDSAWADQLSQQQWSTDYSQVQTFSAPGMEDKTVEERIKDSEFYKFMDQVKNKEVLIDEEKGELVQGPGPEVGVPEDAEYLRHWAEMEGLNMPEGVFQPPPPASAMMTPENGDPDTYIKEMDMAENDVEDWAQEYAEMQERLQKVTNNTDYPFEPNNPYMFHDFPFDEGMEMLQLGNLAEAALAFEAVCHKDSSNEKAWQILGTTQAENEKDGLAIIALNNARKLNIRNLEVHAALSVSHTNERNADAAMDSLKAWLVNHPEYEQLASVSIPPDAELDVQETFFFADPSRMREARTLYEAAIEMNPSDSQLFTNLGVLHNVAHEFDEAAECFRKAVALHPDDPKMWNKLGATLANGGHPDQALEAYNRALDINPGYVRAMYNMAVAYSNMSQYNMAARQIVKAIASQQGGTKPSGEGSIMATRNMWDLLRMTLNLMDRDDLVQLTYNEQLEPFVKEFGLEGHV	not soluble
MAHHHHHHMDFQNRVGHKTGSGMPLSREDINQERRERLKQLALENIDITKDPYILKNNVGMFECKLCLTLHNNESSYLCHTQGKKHQMNLAQRLLKEKNEMTTNRLNKPVSEPRKIVKIGKPRYDVTRVRNKKNQLGILFELSFPNIKENTKPKFRFMSSFEQKIEAPDKKYQYLLFAAEPYETIAFKIPNIDIDENEGFYYKWFDKKKIFVMQIHFQNAFPPGHVNLREHSNFLSSTNRW	not soluble
MAHHHHHHMDLFNCQYCSISPFDYILDYLYGDTSSKKEEKKKKSNITYDDSSSNNVSQVVSKIDEEIEKRTTNEILLLCRAWENYVHPRAKEYWKDSQQLQNILCKIANGITKNDDPILGDDYACVFWYGDKNKNDNCPIISVKKGNDNIETITYVNRVLIFLYADEASFQELQKKPKKAFTMACGNTNCINLTHISLDD	not soluble
MAHHHHHHMDRLAGSFLSNGDVANASSLYNSLEKLNPTRYSRMARICRVLLNPQGVPLPHRHLDICEALLDPLVPPEVLLRDSAENVQKSFQRLAVCAHPDKNPSPSANEAFLRLTMMKDKALELLRNGVGRKCDGATEAPPGKAADSNGGKGKPKMQGSGPAVPTVAHRRRPLRPGVPLPAAATAVTSDINTAAAVSSKISQLRRTKITLNALKRKDIADDFEIFSATQRTTAVQSEVSHSDVGEDHLATTVPVMSTKERARCANRRRSQSSAPQEKTTTVPRASSPNSNPLLSSSLYYAMPVSPHKPLSPSPQTLEDPTGSVKSSGAGDRDASALYSPFIPTAAIPADSDAIRRQIDEACLRLREMRLQHTTVRLDLDLSFEAYERSKQPQ	not soluble
MAHHHHHHMDSEPFAFDGEGSRARQSEYVDMTLVHLGMKLRDMGIAFEDMELATVPTQFAEQLLSYIEAFEERESAIRAATTEHRAQLEQEQKRLESLQEATEKARGEVAILSERISSALSAFRGEEKLEAQHRRERQRDVQDIVRQIEKKELELRRETMERDRLSKMLKKVKK	soluble
MAHHHHHHMDTPEREVSPPPAEEDENKKRVIIILEGAHLQLIETKRYIYELANIMKHKHLLRDQKNEEEMRNFRPDILHQCLIHLLESALNKYGLLQVYIKTHDNQLFYVSSHLKIPKTYDQFESLMVTFLRKYKIKANEKNLCLLKFLKNDYSAILPINGKKIGLSVKGKKVHFSEYVQNLQNEDVPVTFFIGAVAYSNPITKLENLDDNICISEFSLSAATCCSTICSEFENLLGLF	soluble
MAHHHHHHMDVEHFIASLPPRTSVCGLHSVLSHASVHSLDSLGSTETPMLLTAQNFSFMSSGGDGDDNIGNAASTDSRATGAHGSGSNGSSHSGHHPTSPSPCGANASPFISKRLKYVIRSVALDHEECGGDSLSSRIASSYIGSSMPATNSQTRRRSERHVTFALEPEVLDARPRFSAYSRTVELLEQICLDKQSPWNALSLLQSALEERRGQLAQLRGQWDGALTGEAPTLTSSVTPKPCTITTSSGGGAVCHSRDKTTVPSPKSFPSATTSTLMTKGKSSRYSKVKPKACTTCSAM	not soluble
MAHHHHHHMEAETSKISEVPLPIPIGINGFGAVGRAVLFASMTEPQVTVVAVNDFSVSINYVLYVLQNESPLSAEDKASLTVVGEYIFYRGTERIRVTQKHDLVDIAWRDAGVSYVVECTGFTSTRDRCWGHLTSGARGVLVAGQSGDAPAIVAGVNDSDLSKIQPIICSGAPLAVALAPFIRILHESFGVEDCSYTAIHAIQPVEPNAARSANSQDWRQTRVTLDSITPYAHTGMTTFCKLMPTLSSRITGSAFQVPVTKGCAIDMLLRFKQPVAKESVDEALIEASKDRLKDVLFVSKRDFISRDLLPDGKLCYDPSASQCVREGELYKFTLWFDLERSFAKRLISLIPVMNDADAKKNNV	soluble
MAHHHHHHMECVELTPSESGTINRRGAIPANLAGNSYYARRYSTQGGTRRGTLDATEPHVQFRSGDLVLQLCLSAVPRELSHKRIVDVTGIQTSFHNVSERQSKALATVEEAMQTMHLHDGHEVPALQRGDVNLVRLQPRCVYISPPPSHSFAAGEAVAVDLRHLSSALRPLSNPYVLLAQTRRLSFRSEMEAVQTAQVMASFLTELRGGGAVSEGCGSSVGVFGSAAVLRPVVRDGHLVAMTLCPPRDTARGCRRR	not soluble
MAHHHHHHMEDVGGKANCQIEPERKEAVIDTSNWPLLLKNYDKLNVRSSHFTPLPMGNSPYSRNLEEYLKYGIINLDKPSNPSSHEVVSWIRKILRCEKTGHSGTLDPKVTGVLLVCLNRATRLVKSQQESGKEYVCVCKFHSKPKSLEEVKLVLNNFHGAIFQRPPLICAVKRQLRVRTIYDSKLLDFDDANNVCVFWVKCQAGTYIRTLCEHIGLLLGVGAHMQELRRVKSGNMTEYDNMCTLHDILDAQHVYDTTGDESYLRKIITPLEKLLINFPRIVIKDSAVNAICYGAKLTIPGVLRFDNNIDVNSEVVLMTTKGEAVALAIAQMTSSVIATVDHGVVSLTKRVIMDRDTYDVKWGYGTRSMEKKKLILAGLLDKYGKPNEKTPLSWIKSEGYVPKLVGDTAIYTLNTDDGNNNEVPENGKNVVGENNNPVGGSSAFNLSEGENKKKKDGEGAEENDNNAGEQSDSGVVKKKRKKN	not soluble
MAHHHHHHMEENNQVEKNKGTNQLCFVKMLVNNLVAGSVIGKNGSIITSIENKTGCSLKLSPTNSYFPNTQERVLVLCGKQEQINNALLIILDKIRQITVQSFQDKQNMNTVPKYTCRIVIPKSAASAIIGKGGQQIKQLQDSTGAKIQISSREDGLNERIISIIGPFESISDTAIKVTNSIQNDPNLKDLLNVIYNKDTNMNGRSSLSQNFVNQVPLNGYVVPQQYGVFQHEQYMDVNMMNSLMRHSRDLFNLPCEISIQIPDEFIGSVIGKNGSRLTNIMNSTGAQIRISRKGELIPGTADRKVRIMGTVAAVHGAHVLLLQRLESVYMQLRTMQVKCDA	soluble
MAHHHHHHMEGQERRSVVEMTNTKTILLDPKDGWAPKAQFDFDASLWSIPPTHRIVHTFQDTKHKTYATQKDVYNLIAKDLVPHVFNGFNSCILTYGQTGSGKTYTMMGLYDPNASCGGDGEEGIIPRVSNDIFIILKERMEEEAKTRPPRDRTKFRVEVSFVEIYMERVRDLLDPALRHTRSNEHLQDARIRQDPYSGPFVEGVTKYEVENWTQCCTLLERGSQHRTTCATAVHNQSSRSHAIFQLTVVQEQVVPGNNKYALPAFKTQAGRINLVDLAGSERGGFQDYVKESAAINTSLLALRRVIDNLTERQNMLMEMAEAEITGKHYQERPLPQVPFRDSVLTWLLSDSIGGNARTTMVATLSPLVKNYADTLATLQWSSRARNLVTLVKMNDQALVHNGMASHAGALDNAVRIQRQNLDSLRQTLRSKQEAAQQLERQTKEHKKSLTKVRGRERAILRDRAALIIQRAFHRFLFYKKYEAYELHHAKLRGGNKRGTGDAADFQKIRKEAEAREQAAKEALKAEEALTDEKAAAVARYESNYEARALRRREAEERQARIVEVINGNELLRQYVEKRRQEVEALRSVADNENREREMAVKKLADMIKAIADHKTDQHKRKVEEDQKMLEMLRKKRDEVRSRRYEVLRQLQTLRERHKKVVKK	not soluble
MAHHHHHHMEIADRPLSEIIKEQKIDKELRRRHRGNQSGGNSDKKSVNRQGSSSQRQRNNNNNNTSGSRSRGSGNRSGGNKPESGRRRFRTDGGRRRGGNAVSAGSGSFGASRRRLADRADRRRRGALGGDNGNDGFGRGRDRDNNDRRGVKSAPRRRRISGAERNERNRNRDRRSALSRSRFDRDY	soluble
MAHHHHHHMEPDDGVASWMELREEGNKAFKSEAYANAVKLYSEAIKLNSKEAALFSNRSAAYIKMKEYQKAVLDAEAAIANDKTFVKGYSRLHNALCHLGRFREATQKLKEALVVLEACGASPEDKKQIQELHRTAEEGQRGFEAGQRLLEERNFLAAERELVKAAQLFPDCAIVGIMLGESQASLYPERVIRSLTALSSAHADDTYYLYVRALASYYSGQSGLNNAQSILRHTIELDPDNRKATELLKKIRAVESQKTEGNAAFKEKRFTAAVNCYKAAIEVDPSNIRMTAVLRGNQAAAKMELKEYSSALLDCDFAIKNGAESAKLYARRSRIHEALENYDDALRDIQRAAEMDPSYNGEAQQMKISAKRAKRKDYYKILGLPQGESDDSSIKRAYKKGCLQWHPDKWAHATEEEKAHAEKMFKEVGEAFSILSDPQKKRLYDSGQLDDASSPGGTSDFPARQADIFQMMNMMFQGGCGEGGMPSGFSFTVDPRSRRQKQTFHYR	soluble
MAHHHHHHMEQRELEKLFAPYGQILSAAVMRNIHTGNSLGTAFVRYASTEEAMSAIKGMSGKRIGGRAIAVQWAKKQHDYAPVGEARKKISKLFVRNIPLDINTVVLEDMFSMYGPVKSVSIHKDTAPDCDKNFERHIAFITFLADGAAERAAEAVHNTRPFPSCGKVPLMVKLAEDAPQRIHHGTGSKNSANALRTKQQLQGDMSAMSSGQEQFFDAPAVQQCFPTGTGTGAMVVAPTSYFSLLASGGLILPGSLPGAVMGSEAPYPWRTRVTWPQGTGVPFPFYNGGAAATAANPLAPSNACATPPSGSPVSCMNNGGFTSFPMYTTPFCPSTSPGLSGTQADSVAGSPLILPSSLHQ	not soluble
MAHHHHHHMEVGQRCRLLVADCTYTHATNSSDDIHGNGFTVTGVVVGVRPHAEEPWRRLYYVHCTRIEFGTELARQRRKAAAPSWSGAPLSTIGSGTIHSCNELRAAGGSFVSNGGYHYRYDGWYDAFALTPLSADVALANNTAAMASAGSSPPEPPATVSEPRDDEGAASASAVSHLPGQHRDAPEEWVAAMERDTAVCEVVYLCYAFQPWFSAPYSALQYLALPEDDVCHSVYVCHRCLSPFFTREQYYVHLAGEYCRLRTPPGRLIYHDEDAGYKAFLVDGAKNLHYGRCLSLLSKQLIESKVLSNDVDLYEYVVVTIPRASLPYMPAALPSCTSAEQCGVANLVALSREGFRQAASDFDAEDWDGDAVMGYFSRLKHHPDHTLSCIVTLPMFQRTRVATFLLDVAYWMTRQRQRLCGCGFCGRSGGAISRPFSPHGQSLLLSYWRRALLRSLAEVAPLHRRASRTAQPELRFTLAELRALMDIPIHTNDMETLLLHSEFAFYQPAAANAAAARYSDDDDSASPPTSPTSARRRQRHERGSTSTSLKDSQASSGSKLSSSSAGGSAGNGGSSTSGARYTGTLVLEAALLEAAAELHTKTPRSCVMFDKRWLVKDGRGAYAYDTPYYHH	not soluble

— the DeepSol protein solubility set
